Here are results for 47 substances from the array DNA melting data of Ke et al..

The data set in a line: melting temperature; melt of duplexes. The note with it: sodium 0.0675 M; strand 1 µM.
What is called Tm is the temperature at the midpoint of the melting transition. On to “CGACGTGCGGCATGTGCTG+CAGCACATCATGCACGTCG ((((((((...((((((((+))))))))...))))))))”, for which the midpoint of thermal melting (Tm) was 51.2 °C. Turning to “CGACGTGCAGCATGTGCTG+CAGCACATGCGGCACGTCG ((((((((.((((((((((+)))))))))).))))))))”, the Tm is 61.6 °C. Consider “CGACGTGCCACATGTGCTG+CAGCACATAATGCACGTCG ((((((((...((((((((+))))))))...))))))))”, for which the Tm turned out to be 47.5 °C. With “CGACGTGCCGCATGTGCTG+CAGCACATAGTGCACGTCG ((((((((...((((((((+))))))))...))))))))”, the Tm was determined as 46.8 °C. As for “CGACGTGCCCCATGTGCTG+CAGCACATCCAGCACGTCG ((((((((...((((((((+))))))))...))))))))”, the midpoint of thermal melting (Tm) is 47.4 °C. Turning to “CGACGTGCAGGATGTGCTG+CAGCACATGTCGCACGTCG ((((((((...((((((((+))))))))...))))))))”, the Tm was 51.4 °C. In the case of “CGACGTGCACGATGTGCTG+CAGCACATCAAGCACGTCG ((((((((..(((((((((+)))))))))..))))))))”, the midpoint of thermal melting (Tm) is 51.2 °C. Regarding “CGACGTGCCTCATGTGCTG+CAGCACATTGAGCACGTCG ((((((((...((((((((+))))))))...))))))))”, the Tm was found to be 51.4 °C. For “CGACGTGCCAGATGTGCTG+CAGCACATTATGCACGTCG ((((((((...((((((((+))))))))...))))))))”, the midpoint of thermal melting (Tm) worked out at 50.5 °C.

Take “CGACGTGCCTGATGTGCTG+CAGCACATGGTGCACGTCG ((((((((...((((((((+))))))))...))))))))”: the Tm was 47.4 °C. “CGACGTGCCGAATGTGCTG+CAGCACATCCCGCACGTCG ((((((((.(.((((((((+)))))))).).))))))))”: the Tm was 49.6 °C. Regarding “CGACGTGCCGCATGTGCTG+CAGCACATACCGCACGTCG ((((((((.(.((((((((+)))))))).).))))))))”, the Tm was 48.9 °C. On to “CGACGTGCAGGATGTGCTG+CAGCACATAGGGCACGTCG ((((((((...((((((((+))))))))...))))))))”, for which the midpoint of thermal melting (Tm) was 50.3 °C.

For “CGACGTGCATAATGTGCTG+CAGCACATCAAGCACGTCG ((((((((.(.((((((((+)))))))).).))))))))”, the melting temperature (Tm) stood at 48.4 °C. As for “CGACGTGCCCGATGTGCTG+CAGCACATATTGCACGTCG ((((((((...((((((((+))))))))...))))))))”, the melting temperature (Tm) was 47.7 °C. Regarding “CGACGTGCGCTATGTGCTG+CAGCACATATAGCACGTCG ((((((((..(((((((((+)))))))))..))))))))”, the midpoint of thermal melting (Tm) worked out at 53.8 °C.

In the case of “CGACGTGCAGAATGTGCTG+CAGCACATTTTGCACGTCG (((((((((.(((((((((+))))))))).)))))))))”, the midpoint of thermal melting (Tm) came to 57 °C. Next, “CGACGTGCAAGATGTGCTG+CAGCACATTCAGCACGTCG ((((((((...((((((((+))))))))...))))))))”: 50.7 °C; “CGACGTGCATCATGTGCTG+CAGCACATTGCGCACGTCG ((((((((...((((((((+))))))))...))))))))”: 46.9 °C; “CGACGTGCTAAATGTGCTG+CAGCACATTTAGCACGTCG (((((((((((((((((((+)))))))))))))))))))”: 61.6 °C.

Consider “CGACGTGCGTAATGTGCTG+CAGCACATACCGCACGTCG (((((((((..((((((((+))))))))..)))))))))”, for which the melting temperature (Tm) stood at 54.2 °C.

Regarding “CGACGTGCCCAATGTGCTG+CAGCACATATAGCACGTCG ((((((((...((((((((+))))))))...))))))))”, the Tm came out at 48.5 °C.

As for “CGACGTGCAGAATGTGCTG+CAGCACATCCGGCACGTCG ((((((((.(.((((((((+)))))))).).))))))))”, the Tm was determined as 52.7 °C. Take “CGACGTGCGTAATGTGCTG+CAGCACATAGGGCACGTCG ((((((((...((((((((+))))))))...))))))))”: the Tm was 51.1 °C. “CGACGTGCGTGATGTGCTG+CAGCACATGCTGCACGTCG ((((((((...((((((((+))))))))...))))))))”: the Tm is 49.8 °C. “CGACGTGCTAGATGTGCTG+CAGCACATTTAGCACGTCG ((((((((((.((((((((+)))))))).))))))))))”: the midpoint of thermal melting (Tm) amounted to 56.6 °C. “CGACGTGCTGAATGTGCTG+CAGCACATACGGCACGTCG ((((((((.(.((((((((+)))))))).).))))))))”: the Tm was 54.1 °C.

As to “CGACGTGCAATATGTGCTG+CAGCACATGTCGCACGTCG ((((((((.(.((((((((+)))))))).).))))))))”, the Tm was determined as 51.5 °C. On to “CGACGTGCGAGATGTGCTG+CAGCACATCTAGCACGTCG ((((((((.((((((((((+)))))))))).))))))))”, for which the melting temperature (Tm) came out at 59.7 °C. In the case of “CGACGTGCCCAATGTGCTG+CAGCACATTCGGCACGTCG (((((((((.(((((((((+))))))))).)))))))))”, the Tm was determined as 55.8 °C. In the case of “CGACGTGCCTCATGTGCTG+CAGCACATCGTGCACGTCG ((((((((...((((((((+))))))))...))))))))”, the melting temperature (Tm) was 43 °C. Consider “CGACGTGCGCGATGTGCTG+CAGCACATGTGGCACGTCG ((((((((...((((((((+))))))))...))))))))”, for which the midpoint of thermal melting (Tm) stood at 51.7 °C. Next, “CGACGTGCTCGATGTGCTG+CAGCACATCTCGCACGTCG ((((((((..(((((((((+)))))))))..))))))))”: 53.3 °C; “CGACGTGCTAAATGTGCTG+CAGCACATGGGGCACGTCG ((((((((...((((((((+))))))))...))))))))”: 52.5 °C; “CGACGTGCAACATGTGCTG+CAGCACATCACGCACGTCG ((((((((...((((((((+))))))))...))))))))”: 46.5 °C. Consider “CGACGTGCAATATGTGCTG+CAGCACATGCAGCACGTCG ((((((((...((((((((+))))))))...))))))))”, for which the Tm came to 52.1 °C. As for “CGACGTGCCTCATGTGCTG+CAGCACATGATGCACGTCG ((((((((.((((((((((+)))))))))).))))))))”, the Tm stood at 56.7 °C. The figure for “CGACGTGCGTTATGTGCTG+CAGCACATCGCGCACGTCG (((((((((..((((((((+))))))))..)))))))))” is 54.6 °C; for “CGACGTGCGGTATGTGCTG+CAGCACATACAGCACGTCG ((((((((.((((((((((+)))))))))).))))))))” it is 59.5 °C; for “CGACGTGCGGGATGTGCTG+CAGCACATACTGCACGTCG ((((((((.(.((((((((+)))))))).).))))))))” it is 56.9 °C.

On to “CGACGTGCTCCATGTGCTG+CAGCACATGCTGCACGTCG ((((((((..(((((((((+)))))))))..))))))))”, for which the Tm was 50.8 °C. For the substance “CGACGTGCAGCATGTGCTG+CAGCACATACTGCACGTCG ((((((((((.((((((((+)))))))).))))))))))”, the Tm amounted to 55.7 °C. For “CGACGTGCAGCATGTGCTG+CAGCACATAAGGCACGTCG ((((((((...((((((((+))))))))...))))))))”, the midpoint of thermal melting (Tm) worked out at 47.6 °C. “CGACGTGCAGCATGTGCTG+CAGCACATTGGGCACGTCG ((((((((...((((((((+))))))))...))))))))”: the Tm worked out at 47.2 °C.

On to “CGACGTGCGGAATGTGCTG+CAGCACATTGCGCACGTCG (((((((((.(((((((((+))))))))).)))))))))”, for which the Tm amounted to 61.2 °C.

“CGACGTGCTCCATGTGCTG+CAGCACATACGGCACGTCG ((((((((...((((((((+))))))))...))))))))”: the Tm is 47 °C. As for “CGACGTGCCGGATGTGCTG+CAGCACATGTGGCACGTCG (((((((((..((((((((+))))))))..)))))))))”, the midpoint of thermal melting (Tm) is 57.3 °C.
